Laboratory results as given in article PMC4010543.

How the values were obtained:
[1] = TEPC-15 immunoblot, whole cell lysates; conditions: control: wild-type pgl (disaccharide Ac-Gal-diNAcBac), same pilE copy number
[2] = TEPC-15 immunoblot, pilF mutant lysates; conditions: glycan gained; control: pglC pilF (no glycan)

B1: PilE: pglC null (protein)
parent chain: MNTLQKGFTLIELMIVIAIVGILAAVALPAYQDYTARAQVSEAILLAEGQKSAVTEYYLNHGKWPENNTSAGVASPPSDIKGKYVKEVEVKNGVVTATMLSSGVNNEIKGKKLSLWARRENGSVKWFCGQPVTRTDDDTVADAKDGKEIDTKHLPSTCRDNFDAK
other: phosphocholine modification of PilE ([1]; glycan lost): increases

B2: PilE: pglE ON pilF (trisaccharide) (protein)
parent chain: MNTLQKGFTLIELMIVIAIVGILAAVALPAYQDYTARAQVSEAILLAEGQKSAVTEYYLNHGKWPENNTSAGVASPPSDIKGKYVKEVEVKNGVVTATMLSSGVNNEIKGKKLSLWARRENGSVKWFCGQPVTRTDDDTVADAKDGKEIDTKHLPSTCRDNFDAK
other: phosphocholine modification of PilE [2]: no change

B3: PilE: pglE ON (trisaccharide) in 2xpilE and 3xpilE (protein)
parent chain: MNTLQKGFTLIELMIVIAIVGILAAVALPAYQDYTARAQVSEAILLAEGQKSAVTEYYLNHGKWPENNTSAGVASPPSDIKGKYVKEVEVKNGVVTATMLSSGVNNEIKGKKLSLWARRENGSVKWFCGQPVTRTDDDTVADAKDGKEIDTKHLPSTCRDNFDAK
other: phosphocholine modification of PilE ([1]; glycan changed form): decreases
